How the values were obtained:
[1] = target: SKOv-3細胞 (卵巣癌細胞株) の細胞表面抗原; test: phage recovery: 1x10^7 phage + 1x10^7 SKOv-3 cells, 4C 4 h, 3 spins through solution (1) 1%BSA-MEM; colonies counted
[2] = target: SKOv-3細胞 (卵巣癌細胞株) の細胞表面抗原; test: phage recovery: 1x10^7 phage + 1x10^7 SKOv-3 cells, 3 spins through solution (2) Ficoll-Paque diluted 4-fold in PBS; colonies counted
[3] = target: SKOv-3細胞 (卵巣癌細胞株) の細胞表面抗原; test: phage recovery: 1x10^7 phage + 1x10^7 SKOv-3 cells, 4C 4 h, 3 spins through solution (2) Diphenyl Ether:1.1.1-Trichloroethane:Hexane=44:27:33; colonies counted
[4] = target: SKOv-3細胞 (卵巣癌細胞株) の細胞表面抗原; test: phage recovery: 1x10^7 phage + 1x10^7 SKOv-3 cells, 4C 4 h, 3 spins through solution (3) Isopropyl Ether:1.1.1-Trichloroethane:Hexane=20:50:30; colonies counted
[5] = target: SKOv-3膜タンパク (可溶性分画、ダイナビーズ結合); test: phage recovery: Dynabeads with 10 ug SKOv-3 membrane protein + 1x10^8 cfu phage
[6] = target: SKOv-3細胞 (卵巣癌細胞株) の細胞表面抗原; test: phage recovery: 1x10^7 phage + 1x10^7 SKOv-3 cells, 3 spins through solution (1) 1%BSA-MEM; colonies counted
[7] = target: SKOv-3膜タンパク (可溶性分画、ダイナビーズ結合); test: phage recovery on SKOv-3 membrane protein beads with 400 ug free SKOv-3 membrane protein against recovery without it
[8] = target: SKOv-3膜タンパク (可溶性分画、ダイナビーズ結合); test: phage recovery on SKOv-3 membrane protein beads with 400 ug free HeLa membrane protein present
[9] = target: SKOv-3膜タンパク (可溶性分画、ダイナビーズ結合); test: phage recovery on SKOv-3 membrane protein beads with 400 ug free SKOv-3 membrane protein as competitor

回収されたファージの数 [1]	回収されたファージの数 [2]	回収されたファージの数 [3]	回収されたファージの数 [4]	回収されたファージ (cfu) [5] [cfu]	回収されたファージの数 [6]	回収の変化 (遊離SKOv-3膜タンパク共存 / 非共存) [7] [fold]	回収されたファージ (cfu) [8] [cfu]	回収されたファージ (cfu) [9] [cfu]	Molecule
308 ファージ数	1040 ファージ数	176 ファージ数	198 ファージ数	11	1040 ファージ数	–	–	–	pAALSC3-D1.3HL 抗HEL(hen egg lysozyme)抗体ファージ (scFv)
–	–	–	–	87000	–	0.025	50000	2200	クローン126 (015-126 pIII:抗HER2抗体、ファージpIII融合scFv型抗体) (scFv, part only; not given: CL and pIII fusion parts, part only) scFv, part: QVQLVQSGAEVKKPGESLKISCKGSGYSFTSYWIGWVRQMPGKGLEWMGIIYPGDSDTRYSPSFQGQVTISADKSISTAYLQWSSLKASDTAMYYCARLTLSYSSSWFDYWGQGTLVTVSSQTVVTQEPSFSVSPGGTVTLTCGLSSGSVSTSYYPSWYQQTPGQAPRTLIYSTNTRSSGVPDRFSGSILGNKAALTITGAQADDESDYYCVLYMGSGISVFGGGTKLTVL
